Reference: patent publication US20100239556A1, “PROMOTING ECM PRODUCTION BY FIBROBLAST CELLS AND/OR PROMOTING MIGRATION OF FIBROBLAST CELLS IN A BIOLOGICAL SYSTEM” (TGR BioScience Pty Ltd., priority 2006, published 2010)

What was measured:
[1] = system: HFF cells; test: Collagen I production in the presence of dexamethasone; type: cell-based, human
Protocol: (§1) Primary human foreskin fibroblast cells (HFF) were seeded into 96 well plates at a density of 1.2×10^4 cells/well and cultured overnight in 10% fetal bovine serum/Dulbecco's minimum essential media (10% FBS/DMEM) at 37° C. and 5% CO2. The cells were then starved overnight in serum free DMEM and triplicate wells treated for six hours with a range of doses of proteins with peroxidase activity; horse radish peroxidase (HRP; 0.2-50 ug/ml), Arthromyces ramosus peroxidase (ARP; 0.2-50 ug/ml), microperoxidase (MP; 8-500 ug/ml), soy bean peroxidase (SBP; 0.2-100 ug/ml) and lactoperoxidase (LP; 10-310 ug/ml) (all obtained from Sigma-Aldrich). At the end of the six hour treatment period, the media was aspirated and replaced with fresh serum free DMEM and the cells cultured for a further 72 hours. After 72 hours the culture media was collected for assessment of secreted, soluble collagen types I, III and VI as well as fibronectin protein and the cells assessed for viability/growth using an alamar blue fluorescent dye assay. This assay measures the reduction of oxidized, blue nonfluorescent Alamar Blue reagent to a pink fluorescent dye in the cell medium, such that the higher the amount of reduction, the greater the cell number and/or activity (O'Brien Eur J Biochem 267 2000). Briefly, cells were bathed in a 10% Alamar Blue/phosphate-buffered saline (PBS) solution for 30-60 minutes and fluorescence measured at wavelengths of 485 nm excitation and 595 nm emission using a Wallac Victor Multilabel HTS counter. Relative fluorescent units (RFU) for each sample were normalized to control wells (DMEM only treated cells) and data expressed as mean±standard error of the mean (sem) for triplicate wells. Experiments were repeated at least three times with the combined data from all experiments shown.
The amount of soluble collagen types I, III, and VI in HFF conditioned media was measured by a direct coat ELISA method using standard curves constructed from purified human collagen I, III or VI (extracted from human placenta; col I, BD Biosciences; col III and VI, Rocklands Immunochemicals) and fibronectin (extracted from human plasma, Chemicon). Samples and standards (20 μl/well) were added to a 384 well spectraplate (Packard BioScience) and left at room temperature (RT) overnight. […] After a final wash (6×PBS-T), enhancement solution was added for at least 10 minutes and fluorescence measured at excitation 340 nm and emission 615 nm using a Wallac Victor Multilabel HTS counter. The respective ECM concentration of each sample was determined from the standard curve (μg/ml) and normalized to control wells (DMEM only treated cells) with the mean±sem for triplicate wells calculated. […]

[2] = system: human foreskin fibroblast cells (HFF); test: Alamar blue viability/growth assay; type: cell-based; conditions: 72 hours
Protocol: as §1, with “At the end of the six hour treatment period, the media was aspirated and replaced with fresh serum free DMEM and the cells cultured for a further 72 hours.” left out, “This assay measures the reduction of oxidized, blue nonfluorescent Alamar Blue reagent to a pink fluorescent dye in the cell medium, such that the higher the amount of reduction, the greater the cell number and/or activity (O'Brien Eur J Biochem 267 2000).” left out, “Experiments were repeated at least three times with the combined data from all experiments shown.” left out

[3] = system: human foreskin fibroblast cells (HFF); test: Soluble collagen I, III and VI in HFF conditioned media (direct coat ELISA); type: cell-based; conditions: 30 μg/ml, 72 hours
Protocol: as §1, with “After 72 hours the culture media was collected for assessment of secreted, soluble collagen types I, III and VI as well as fibronectin protein and the cells assessed for viability/growth using an alamar blue fluorescent dye assay.” left out
The amount of soluble collagen types I, III, and VI in HFF conditioned media was measured by a direct coat ELISA method using standard curves constructed from purified human collagen I, III or VI (extracted from human placenta; col I, BD Biosciences; col III and VI, Rocklands Immunochemicals) and fibronectin (extracted from human plasma, Chemicon). Samples and standards (20 μl/well) were added to a 384 well spectraplate (Packard BioScience) and left at room temperature (RT) overnight. The spectraplate was then washed 6 times with PBS-tween 0.05% (PBS-T) and 2.5% bovine serum albumin (BSA)/PBS blocking solution added to each well and the plate incubated for 1 hour at RT. The plate was then washed 6 times with PBS-T and primary antibody (0.25 μg/ml rabbit-anti-human-collagen I polyclonal; 2 μg/ml rabbit-anti-human-collagen III polyclonal; 0.25 μg/ml rabbit-anti-human-collagen VI polyclonal; 0.2 μg/ml rabbit-anti-human-fibronectin polyclonal, all from Rockland Immunochemicals) in 5% non-fat dairy milk added to each well for four hours at RT. After washing (6×PBS-T), europium tagged anti-rabbit secondary antibody (0.5 μg/ml 1% BSA/PBS; Wallac Oy) was added for 1 hour at RT. After a final wash (6×PBS-T), enhancement solution was added for at least 10 minutes and fluorescence measured at excitation 340 nm and emission 615 nm using a Wallac Victor Multilabel HTS counter. The respective ECM concentration of each sample was determined from the standard curve (μg/ml) and normalized to control wells (DMEM only treated cells) with the mean±sem for triplicate wells calculated. Experiments were repeated at least three times with the combined data from all experiments shown.

[4] = system: dermis; test: Fibrogenic response after intradermal injection; type: in vivo, Sprague-Dawley rats; conditions: LP 125 μg, TGFβ 0.5 μg, 3 days
Protocol: Groups of up to 4-8 female Sprague-Dawley rats were lightly anaesthetized and the dorsum shaved. At different sites on their dorsum, each rat received a bolus, intradermal injection of 4 doses of a protein with peroxidase activity (LP, […]; HRP, 1.25-25 μg; SBP, 1.25-25 μg; or micro-peroxidase [MP], 5-125 μg), a vehicle control or TGFβ2 as a positive control. Arthromyces ramosus peroxidase (ARP) was also injected at one dose of 25 μg. Proteins with peroxidase activity were injected in a volume of 50 μl which was sufficient to create a small blister in the skin that resolved within a few minutes. Across the group of rats, each dose of proteins with peroxidase activity was injected into each of the different injection sites to control for any site-related, intra-rat variation. The rats were returned to their cage and left alone for 3 days after which they were killed by CO2 asphyxiation and the skin at the injection sites collected for analysis. The skin at the injection sites was excised using a 6 mm biopsy punch with each piece bisected and fixed in 10% buffered formalin. Fixed tissue was processed for histological assessment by graded dehydration and mounting in paraffin blocks. Blocks were sectioned and sections stained with haematoxylin and eosin (H&E) and Masson's trichrome for qualitative analysis by an experienced pathologist. H&E stained sections were scored for the “fibroblast reaction” (1+-4+) to reflect the number of fibroblast cells identified at the injection site, with 4+ representing the greatest response. H&E and Massons trichrome stained sections were used to evaluate the amount of deposited, collagen-rich extracellular matrix (ECM) that was associated with the fibroblast reaction at each injection site. The collagen-rich ECM deposition was scored 1+-3+ with 3+ representing the greatest response. The scores were combined across the group of rats and statistical analysis performed using a Kruskal-Wallis one way analysis of variance on ranks (ANOVA) followed by post-hoc t-test comparing the response of the proteins with peroxidase activity to the control using Dunn's or Dunnett's method, p<0.05 was considered significant.

[5] = system: human foreskin fibroblast cells (HFF cells); test: Repeated stimulation of collagen I production; type: cell-based; conditions: further 5 days without second stimulation
Protocol: Experiments were performed to ensure human fibroblast cells could be stimulated to increase ECM protein production by proteins having peroxidase activity after more than one application of the proteins having peroxidase activity. The capacity to respond repeatedly to the proteins having peroxidase activity provides important utility for the generation of ECM in vitro, particularly given that spent culture media needs to be replaced on a regular basis to maintain the viability of the cells. These experiments were performed using human foreskin fibroblast cells (HFF cells) seeded into 96 well plates at a density of 1.2×10^4 cells/well and cultured for one week in 10% fetal bovine serum/Dulbecco's minimum essential media (10% FBS/DMEM) at 37° C. and 5% CO2 (as described in Example 3). The confluent cells were then starved overnight in serum free DMEM and triplicate wells treated for six hours with MP, ARP and LP as representative proteins having peroxidase activity or the control agents transforming growth factor β2 (TGFβ2; R&D Systems) and 10% FBS (JRH BioSciences). After 48 hours, the conditioned media was collected for measurement of collagen I (as a representative ECM protein) and the cells either restimulated for six hours with fresh solutions containing proteins having peroxidase activity or control agents or the media was replaced with fresh serum free DMEM. The cells were cultured for a further 5 days after which the media was collected a second time for the measurement of collagen I. Media was also collected from replicate wells treated at the start of the experiment and left for 7 days (total culture period) for comparison.

For C[C@@H]1C[C@H]2[C@@H]3CCC4=CC(=O)C=C[C@]4(C)[C@@]3(F)[C@@H](O)C[C@]2(C)[C@@]1(O)C(=O)CO [dexamethasone, reference compound], the inhibition at 20 µM ([1]; Homo sapiens, HFF, dexamethasone 20 μM, read-out: inhibition of collagen stimulated by ARP) was about 30%.

In the case of recombinant ascorbate peroxidase [APX], the “HFF cell growth or viability” value [2] is reported as “Neither APX nor MPO had a major effect”.

B1: myeloperoxidase (protein, UniProt P05164 165-745, looked up)
Myeloperoxidase: VTCPEQDKYRTITGMCNNRRSPTLGASNRAFVRWLPAEYEDGFSLPYGWTPGVKRNGFPVALARAVSNEIVRFPTDQLTPDQERSLMFMQWGQLLDHDLDFTPEPAARASFVTGVNCETSCVQQPPCFPLKIPPNDPRIKNQADCIPFFRSCPACPGSNITIRNQINALTSFVDASMVYGSEEPLARNLRNMSNQLGLLAVNQRFQDNGRALLPFDNLHDDPCLLTNRSARIPCFLAGDTRSSEMPELTSMHTLLLREHNRLATELKSLNPRWDGERLYQEARKIVGAMVQIITYRDYLPLVLGPTAMRKYLPTYRSYNDSVDPRIANVFTNAFRYGHTLIQPFMFRLDNRYQPMEPNPRVPLSRVFFASWRVVLEGGIDPILRGLMATPAKLNRQNQIAVDEIRERLFEQVMRIGLDLPALNMQRSRDHGLPGYNAWRRFCGLPQPETVGQLGTVLRNLKLARKLMEQYGTPNNIDIWMGGVSEPLKRKGRVGPLLACIIGTQFRKLRDGDRFWWENEGVFSMQQRQALAQISLPRIICDNTGITTVSKNNIFMSNSYPRDFVNCSTLPALNLASWREAS
B1 was tested, and the “increase in collagen I production” value [3] was 3 fold and the “HFF cell growth or viability” value [2] was “Neither APX nor MPO had a major effect”.

B2: transforming growth factor β2 (protein, UniProt P61812 303-414, looked up)
Transforming growth factor …: ALDAAYCFRNVQDNCCLRPLYIDFKRDLGWKWIHEPKGYNANFCAGACPYLWSSDTQHSRVLSLYNTINPEASASPCCVSQDLEPLTILYYIGKTPKIEQLSNMIVKSCKCS
notes: control agent, fibrogenic factor (R&D Systems)
For B2, the “number of fibroblasts present at the injection site (H&E images)” value [4] was “profound increase in the number of fibroblasts”, the “collagen I production when left untreated after the media change at day 2” value [5] was “maintained level of collagen I production” and the “maximum increase in collagen I levels” value ([1]; 1-10 ng/ml, no dexamethasone) was 2-2.5 fold.
